Experimental data as given in the RNAGym collection of RNA variant scans (doi:10.1073/pnas.2313332121).
Fewer inactive variants are shown than the library holds.

B1: TPR 5TU (parent)
chain: GGAUCUUCUCGAUCUAACAAAAAAGACAAAUCUGCCACAAAGCUUGAGAGCAUCUUCGGAUGCAGAGGCGGCAGCCUUCGGUGGCGCGAUAGCGCCAACGUUCUCAACUAUGACACGCAAAACGCGUGCUCCGUUGAAUGGAGUUUAUCAUG

Variants of: B1
Test: polymerase ribozyme fitness, log enrichment relative to wild type (log ratio); higher = more active; in vitro selection for triplet polymerase activity
Procedure, shortened: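 Mutant libraries were PCR-built and transcribed for each subunit of a heterodimeric triplet polymerase ribozyme and selected for one round in triplicate at −7 °C, frozen, before gel excision of extended constructs and streptavidin-bead capture. Input and output libraries were Illumina-sequenced, keeping genotypes with ≥10 input reads and ≥1 read per output. Fitness is a logarithmic ratio of genotype to wild-type enrichment, in base 2, using inverse-variance-weighted replicate averages.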

Variant	polymerase ribozyme fitness (log ratio)
A120C C125G G133U	-3.85
C116U G141A	-1.01
A107U A115G	-4.16
C114U G141C	-3.4
C108G G136A A147C	≤ -4.2
C118A A119U	-0.617
G128C A150U	-4
G124A C125G	0.356
A107G C131A	-4.19
C105G A107U U148C	≤ -4.2
G124C A142U	-0.985
A106G C118U	0.261
C116U A119U U135C	-2.59
A110G A122G	-2.84
A107U A110U C114U	≤ -4.2
C132U C149G	-3.84
C118G A119U G141U	-0.349
A119C	-0.385
A119U	-0.546
A119G	-0.045
A106C G152U	-2.57
G117A A142U	-4.13
G124C G141C	-1.16
G117C A120G	0.308

Variant	polymerase ribozyme fitness (log ratio)
C114U A147C	-2.83
U102G C116A	-2.07
G124C U135A	-1.84
G117A C123A	0.34
C114G A119G	-2.84
C103A U144G	-2.84
U127G U144G	-1.7
C108U A142C	-3.43
C114A U139G	-2.32
C131G G133C G136U G141U	-3.43
C103G G128C	≤ -4.2
C131G A137U	-4.16
G124A A137G	-1.05
C116U U144A	-0.259
A122G G124A U127A	-3.53
C116U G124A A142G	-2.45
A110G C129U U144C	≤ -4.2
G128U U144C	-3.96
G124A G136A	-0.107
U102G G124C G133A A137G G143U	≤ -4.2
U102C U134A	-3.46
A107G G141U	-3.07
C114A U144G	-3.71
U127C C131A G152U	-3.91

Variant	polymerase ribozyme fitness (log ratio)
C114U A119U	-1.73
A121U U145C	1.15
U111G	-4.05
U111A	-3.05
U111C	-1.77
G124C G140C	-4.05
C118G G141A	-0.0985
A110C G112A G140C A142U	-4.12
A120U A137C A138U	-4.19
U104G U134G G143A	-3.69
U127G U134A	-4.18
C114U A137U	-4.05
C116U A142U	-0.344
U102G C116G G133C	-3.6
A115C U145C	-2.43
A107G C118U U145A	≤ -4.2
A106G U146A	-0.139
C123U A142U	-1.13
U102C A120U G140C	-3.56
G128U A137U	-3.34
G126A C129G	-3.97
C114U G140C A150C	≤ -4.2
U102C G136A	-0.705
A120G G141C A147U	-1.01

Variant	polymerase ribozyme fitness (log ratio)
A115G G124A A150G	-4
A121C G128C	-2.44
C116U U130C	1.13
G126A	0.682
G126U	0.31
G126C	1.28
G124A G140C	-3.89
G124C C132A	-2.4
U102G A121C	-2.85
U102G A121U	-2.32
C116U U134C	-0.00566
C105G C118A	-3.26
C118U U135C	-2.19
U134A A137G	-3.22
U111C G117U	-4.09
A110G G136A	-2.94
C114U G136C	-3.39
C123U U145A	0.729
C114G G133A	≤ -4.2
A113U U146C	-1.49
C132U U135A	-2.46
G126C A150G	-2.81
G133A G141U	-3.08
A119C U139C	-3.46

Variant	polymerase ribozyme fitness (log ratio)
A106G C125A	-0.665
C116U A119G	-0.704
C116U A119U	-0.298
C105G U134C G140U	-4.18
A113U G124U	-2.07
A113U G124C	-3.17
G124A A150G	-0.501
U127A U134C G141C	-3.82
G128A G141A G143U U144G U151A	≤ -4.2
U127G A137U	-4.19
U104G G126A	0.207
U104G G126C	0.0565
A119U U144A	-0.171
G117A U144C	-2.9
C125U A150U	-0.413
C114U C123U	-2.17
C103A G117U	-0.489
C114U U135C	-2.95
U109G G140U	-3.76
A107U A120G C132A A147C	≤ -4.2
U104G U109A G133C	-2.78
A122G A138G C149U	-4
A115G U135A	-2.48
A122U U146C	-0.714

Variant	polymerase ribozyme fitness (log ratio)
G124A U148C	-0.766
G124A U148G	-3.69
C125A A147U	-0.189
A106U U135A	-2.14
A107C C118U	≤ -4.2
C118G A122C G141C	-2.43
G126A A150G	-2.66
A121C C125U G143U	-2.41
C118G A150G	-2.14
C105G A138G	-3.88
C103G U151A	≤ -4.2
C103U U139A	-3.96
C103G A107G A142G	≤ -4.2
A115C A142G A150U	-3.13
A121G U134G	-2.56
C108U C132A U139A	≤ -4.2
C103G A121G	-1.32
C118U A142C	-0.682
C103G G141U	-3.36
G126A C132U A142C	≤ -4.2
G128A G133A U134C A150G	-3.52
A115G C116A U127G	≤ -4.2
U109G C118A C125G	-3.62
G126U G152U	-2.47

Variant	polymerase ribozyme fitness (log ratio)
A115C G133U	-3.74
A119U C129U	0.265
A106G U134A	-1.28
A106G C116U U148C	-1.25
U109G C118G U144A	-3.88
A107U U145A	-2.78
C123A G140A	-3.65
A106C C116G	-0.324
C103G C108G G124C U144A U145G	≤ -4.2
C125U U134G A142C	-3.76
C108A G124U G140C	≤ -4.2
G117U A137G	-1.34
C105U A120U G124A	0.877
A122U G141C	0.115
C103U A115G	-1.14
C105G A120U	-0.931
C103G U135A	-2.27
G128U A142C	-3.6
A107G U127C A138C	≤ -4.2
C132U A150G	-2.47
U104G A119C C123U	0.501
C105G U127C U139G	-2.77
C116G A120U	0.554
